# Experiments:
# [1] = target: the molecule itself; experiment: SEC-MALS; Superdex 200 10/300 GL, 100 μL samples, 50 mM Hepes pH 7.0, 25 mM NaCl, 0.5 TCEP, 1 mL/min; monomer to dimer
# human calmodulin = target: T1, human calmodulin (human, UniProt P0DP23 1-149); experiment: crystal structure; cocrystallised: 1078 µM calmodulin, 2800 µM peptide, 30 mM Tris/HCl pH 7.4, 2.5 mM CaCl2, 20 °C, sitting drop; 2.2 Å; settings: both partners purified
# T1 construct: calmodulin, human; gene a gift from Susan Shao, cloned in pET15b without tag; source: cloned in pET15b without tag, purified following established protocols
Binder,stoichiometry N [1],binding result (human calmodulin)
"EF-domain of hNOX5 (residues 1–161, isoform β) (domain or fragment, human, NADPH oxidase 5 (NOX5), human, isoform β (v2), EF-domain, residues 1-161; stretch of three alanines from the Not I restriction site, added at the C terminus for cloning reasons (told in words); also called human EF-domain; hEF domain; source: E. coli BL21, purified (Strep column, TEV cleavage, Strep and Nickel columns, Superdex 75); not shown: Strep-tag, N-terminal, cleaved) MSAEEDARWLRWVTQQFKTIAGEDGEISLQEFKAALHVKESFFAERFFALFDSDRSGTITLQELQEALTLLIHGSPMDKLKFLFQVYDIDGSGSIDPDELRTVLQSCLRESAISLPDEKLDQLTLALFESADADGNGAITFEELRDELQRFPGVMENLTISAAA",2,–
"Ac-DWSKVFQKVAAEKKGKVQV-NH2 (methods: peptide 673-691; The limits are told in two ways (673-691 and 674-685); Val691 is named as a contact, which fits 673-691; also called DH peptide; hNOX5 peptide; source: synthetic peptide (Chinepeptide Co, Shanghai)) [peptide 673–691 of human DH-domain (putative calmodulin-binding region of hNOX5)]",–,binds

# Reference: article PMC7317449, “On the mechanism of calcium‐dependent activation of NADPH oxidase 5 (NOX5)” (The Febs Journal, 2019)
